The values that follow are results of earlier work, collected in PMC4322731.

The data set deals with Cys12 (UniProt position 13, SVLFVCLGNIC). As to conditions: not stated (discussed as the resting-state thiolate form of the free enzyme).

Take “Bovine heart low molecular weight protein tyrosine phosphatase (BHPTP, LMW-PTP, class II PTP) (Bos taurus)”: the pKa entry is “less than 4”.
